From publication PMC3820850

What was measured:
[1] = target: PfEBA175 FL (entire ectodomain of P. falciparum 3D7 EBA175), Cd4-tagged and enzymatically biotinylated (P. falciparum (3D7)); test: SPR; homophilic; biotinylated PfEBA175 FL immobilised on streptavidin chip, soluble PfEBA175 FL as analyte; quantified from the dissociation phase; 37 °C, HBS-EP
[2] = target: native glycophorin-A extracted from human erythrocytes, chemically biotinylated (human) (UniProt P02724); test: SPR; kinetic; biotinylated GYPA immobilised on streptavidin chip; analyte injected at 100 μl/min; 37 °C, HBS-EP; nonlinear fit of association and dissociation phases
[3] = target: native glycophorin-A extracted from human erythrocytes, chemically biotinylated (human) (UniProt P02724); test: SPR; equilibrium; biotinylated GYPA immobilised on streptavidin chip, biotinylated Cd4 tag as reference; SEC-separated analyte injected at 20 μl/min; BIAcore T100, 37 °C, HBS-EP; steady-state 1:1 fit
[4] = target: PfEBA175 FL (entire ectodomain of P. falciparum 3D7 EBA175), Cd4-tagged and enzymatically biotinylated (P. falciparum (3D7)); test: SPR; equilibrium; biotinylated PfEBA175 FL immobilised, serial dilutions of PfEBA175 FL or RII injected; responses at equilibrium as a fraction of calculated Rmax; 37 °C, HBS-EP

Substance	koff [1] [s⁻¹]	koff [2] [s⁻¹]	kon [2] [M⁻¹ s⁻¹]	Kd [3] [µM]	fold weaker binding affinity to PfEBA175 FL than that of PfEBA175 FL [4] [fold]
PfEBA175 FL (entire ectodomain of P. falciparum 3D7 EBA175), Cd4- and hexa-His-tagged, soluble (domain or fragment)	0.04	0.0968	860000	0.26	–
PfEBA175 RII (region II, tandem DBL domains F1 and F2), Cd4- and hexa-His-tagged, soluble (domain or fragment)	–	–	–	2.52	70
